What was measured:
[1] = target: T1, IGF2BP3 (IGF2BP3-001) peptide on HLA-A2 (human); test: Target peptide titration on loaded target cells, IFN-gamma release; RNA-electroporated primary CD8+ T cells; full-length, on cells
T1 peptide: KIQEILTQV

[2] = target: T2, IGF2BP3-001 A8 (alanine-substitution variant of IGF2BP3-001) peptide on HLA-A*02, assumed (human); test: cytokine release
T2 peptide: KIQEILTAV

[3] = target: T3, IGF2BP3-001 A9 (alanine-substitution variant of IGF2BP3-001) peptide on HLA-A*02, assumed (human); test: cytokine release
T3 peptide: KIQEILTQA

[4] = target: T4, IGF2BP3-001 A2 (alanine-substitution variant of IGF2BP3-001) peptide on HLA-A*02, assumed (human); test: cytokine release
T4 peptide: KAQEILTQV

B1: TCR R10P1A7 (TCR, V domains shown)
Valpha: GEDVEQSLFLSVREGDSSVINCTYTDSSSTYLYWYKQEPGAGLQLLTYIFSNMDMKQDQRLTVLLNKKDKHLSLRIADTQTGDSAIYFCAESKETRLMFGDGTQLVVKP
Vbeta: GAVVSQHPSWVICKSGTSVKIECRSLDFQATTMFWYRQFPKQSLMLMATSNEGSKATYEQGVEKDKFLINHASLTLSTLTVTSAHPEDSSFYICSARAGGHEQFFGPGTRLTVL
For B1, the EC50 of peptide [1] was roughly 1 nM, the binding result [2] was “recognises” and the binding result [3] was “recognises”. B1: recognises [4].

From US20170312350A1 (published 2017)
